These results are taken from patent US9745384B2, “Peptides useful for modulating histone demethylase function” (The Brigham and Women's Hospital, Inc., priority 2012, dated 2017).

Ends that are not written are not given here.

For one experiment, the target named is T1, LSD2 (residues 51-822) (Homo sapiens, UniProt Q8NB78).
T1 construct: Human LSD2 (residues 51-822) was subcloned into a pFastBacl derivative; His6 (cleaved yes); made in house; host or cells: Sf9 insect cells (baculovirus)
T1 sequence (Q8NB78 51-822): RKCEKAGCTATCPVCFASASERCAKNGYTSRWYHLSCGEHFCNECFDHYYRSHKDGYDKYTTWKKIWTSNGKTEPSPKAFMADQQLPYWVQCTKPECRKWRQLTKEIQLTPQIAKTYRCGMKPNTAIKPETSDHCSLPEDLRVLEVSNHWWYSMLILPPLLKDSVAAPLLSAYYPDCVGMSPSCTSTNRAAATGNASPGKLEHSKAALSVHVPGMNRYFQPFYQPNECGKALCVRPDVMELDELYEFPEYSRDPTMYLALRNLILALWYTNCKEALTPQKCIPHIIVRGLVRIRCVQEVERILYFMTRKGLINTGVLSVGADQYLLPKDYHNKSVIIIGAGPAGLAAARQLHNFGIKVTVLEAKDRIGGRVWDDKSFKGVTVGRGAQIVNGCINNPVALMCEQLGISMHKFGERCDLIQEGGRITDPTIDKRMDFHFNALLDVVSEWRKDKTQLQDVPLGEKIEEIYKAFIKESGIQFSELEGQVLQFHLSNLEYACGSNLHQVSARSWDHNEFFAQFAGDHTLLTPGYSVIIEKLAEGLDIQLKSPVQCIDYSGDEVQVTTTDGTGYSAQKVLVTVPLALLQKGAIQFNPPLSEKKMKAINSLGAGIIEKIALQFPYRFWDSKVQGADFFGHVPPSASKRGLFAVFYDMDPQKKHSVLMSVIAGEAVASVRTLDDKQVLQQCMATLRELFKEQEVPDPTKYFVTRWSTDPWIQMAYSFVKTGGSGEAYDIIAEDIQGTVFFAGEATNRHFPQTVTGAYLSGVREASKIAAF
In words: ITC binding of wild-type and mutant NPAC peptides (residues 214-225) with LSD2. Particulars: 15 °C; 3 mM NPAC peptide injected into 0.2 mM LSD2. As to the method:
All proteins and peptides were prepared in 10 mM HEPES, pH 8.0, and 0.1 M NaCl. The data were fitted by software Origin 7.0.

The target of experiment [1] is T2, His-LSD2 (Homo sapiens, UniProt Q8NB78).
T2 construct: typically 0.5 μg full-length His-LSD2; made in house; host or cells: Sf9 insect cells
T2 sequence (Q8NB78 1-822): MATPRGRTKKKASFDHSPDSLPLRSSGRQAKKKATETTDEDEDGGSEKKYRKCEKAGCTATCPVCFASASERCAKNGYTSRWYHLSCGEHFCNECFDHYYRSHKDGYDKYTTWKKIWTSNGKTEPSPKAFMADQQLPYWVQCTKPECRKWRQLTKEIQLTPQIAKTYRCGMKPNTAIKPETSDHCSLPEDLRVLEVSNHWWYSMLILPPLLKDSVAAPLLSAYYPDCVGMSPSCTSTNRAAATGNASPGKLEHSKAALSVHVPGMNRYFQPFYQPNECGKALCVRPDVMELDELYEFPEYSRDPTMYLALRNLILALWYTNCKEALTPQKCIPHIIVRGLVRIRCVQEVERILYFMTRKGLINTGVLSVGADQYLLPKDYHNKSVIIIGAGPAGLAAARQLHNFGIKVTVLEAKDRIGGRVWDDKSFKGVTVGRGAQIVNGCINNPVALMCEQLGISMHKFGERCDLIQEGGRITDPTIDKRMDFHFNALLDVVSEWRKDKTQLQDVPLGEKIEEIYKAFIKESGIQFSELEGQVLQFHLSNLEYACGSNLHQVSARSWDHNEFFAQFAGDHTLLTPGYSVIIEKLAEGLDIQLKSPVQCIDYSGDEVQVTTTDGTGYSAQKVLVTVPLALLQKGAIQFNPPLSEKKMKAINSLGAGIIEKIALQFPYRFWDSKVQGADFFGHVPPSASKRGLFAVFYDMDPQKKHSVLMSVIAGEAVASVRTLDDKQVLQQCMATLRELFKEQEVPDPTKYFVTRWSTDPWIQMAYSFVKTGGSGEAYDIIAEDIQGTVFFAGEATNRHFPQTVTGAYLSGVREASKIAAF
In words: Nucleosome demethylation assay (NPAC cofactor activity for LSD2, immunoblot). Conditions: threshold dosage of His-LSD2; nucleosomes purified from HeLa. In kind it is biochemical. As to the method:
For nucleosome demethylation assays, typically 0.5 μg full-length His-LSD2, 1 μg NPAC protein or peptides, and 2 μg nucleosomes purified from HeLa were used, and demethylation efficiency was analyzed by SDS-PAGE electrophoresis and immunoblot using methylation specific anti-histone H3 antibodies as previously described (Shi et al. 2004).
(In general: A western blot detects proteins with antibodies after separation by electrophoresis.)

In experiment [2] the target is T2, His-LSD2. In words: GST-pulldown of His-LSD2 by GST-NPAC proteins. In kind it is binding. Conditions: coomassie blue staining. On the procedure: […] GST or GST-NPAC fusion proteins were bound to glutathione agarose, and were incubated with 2 μg full-length His-LSD2 overnight in 50 mM NaPO4 pH 7.4, 150 mM NaCl, 0.5% NP-40, 5% glycerol, 10 μM ZnSO4, 1 mM MgCl2, 1 mM DTT, 0.1 mM PMSF at 4° C. After washed 4 times with same buffer at 4° C., glutathione agarose beads were boiled in 1×SDS sample loading buffer. Elute was resolved on a 15% SDS-PAGE gel and stained by coomassie blue.

With `CC(C)C[C@H](NC(=O)[C@H](Cc1ccccc1)NC(=O)[C@H](Cc1c[nH]cn1)NC(=O)[C@H](Cc1c[nH]cn1)NC(=O)[C@H](C)NC(=O)[C@H](C)NC(=O)[C@@H]1CCCN1C(=O)[C@H](C)N)C(=O)N[C@@H](CC(C)C)C(=O)N[C@@H](CO)C(=O)N[C@@H](CCC(N)=O)C(=O)N[C@H](C(=O)O)[C@@H](C)O` [NPAC.214-225.M8], at LSD2 (residues 51-822), the “Δ H” value is -34.68 ± 0.423 kJ/mol and the “Δ S” value is reported as −1.3 cal/mol/deg.
Take “NP.d7: NPAC residues 152-186, containing the AT hook motif (SERGSKSPLKRAQEQSPRKRGRPPKDEKDLTIPES; also: fused to dimerising Fc or GST)”: the “Cofactor activity: stimulation of LSD2 demethylation of nucleosomal H3K4me2” value (“Cofactor activity: stimulation” for short) with His-LSD2 [1] is “but not NP.d7 or NP.d9, significantly enhances LSD2 histone demethylase activity”. Moreover, in the experiment with His-LSD2 [2], the “LSD2 binding (GST-pulldown)” value is on record as “but not NP.d7 (residues 152-186, containing the AT hook motif, lane 4), is sufficient for LSD2 interaction”.

B1: NP.d1: GST-tagged NPAC truncation, PWWP domain, residues 1-150 (protein)
chain: MAAVSLRLGDLVWGKLGRYPPWPGKIVNPPKDLKKPRGKKCFFVKFFGTEDHAWIKVEQLKPYHAHKEEMIKINKGKRFQQAVDAVEEFLRRAKGKDQTSSHNSSDDKNRRNSSEERSRPNSGDEKRKLSLSEGKVKKNMGEGKKRVSSG
modifications: left off: a dimerising Fc or GST
On to B1, for which the “Cofactor activity: stimulation” value with His-LSD2 [1] is given as “Neither the PWWP domain (SEQ ID NO: 63) (NP.d1, residues 1-150) nor the dehydrogenase domain (NP.d5, residues 262-553) stimulated LSD2”. Also, in the experiment with His-LSD2 [2], the “LSD2 binding (GST-pulldown)” value is given as “Neither the PWWP domain (SEQ ID NO: 63) (NP.d1) nor the dehydrogenase domain (NP.d5) interacts with LSD2”.

B2: NP.d5: GST-tagged NPAC truncation, dehydrogenase domain, residues 262-553 (protein)
chain: SITPTDKKIGFLGLGLMGSGIVSNLLKMGHTVTVWNRTAEKCDLFIQEGARLGRTPAEVVSTCDITFACVSDPKAAKDLVLGPSGVLQGIRPGKCYVDMSTVDADTVTELAQVIVSRGGRFLEAPVSGNQQLSNDGMLVILAAGDRGLYEDCSSCFQAMGKTSFFLGEVGNAAKMMLIVNMVQGSFMATIAEGLTLAHVTGQSQQTLLDILNQGQLASIFLDQKCQNILQGNFKPDFYLKYIQKDLRLAIALGDAVNHPTPMAAAANEVYKRAKALDQSDNDMSAVYRAYIH
modifications: left off: a dimerising Fc or GST
Take B2: in the experiment with His-LSD2 [1], the “Cofactor activity: stimulation” value was “Neither the PWWP domain (SEQ ID NO: 63) (NP.d1, residues 1-150) nor the dehydrogenase domain (NP.d5, residues 262-553) stimulated LSD2”. In the experiment with His-LSD2 [2], the “LSD2 binding (GST-pulldown)” value is listed as “Neither the PWWP domain (SEQ ID NO: 63) (NP.d1) nor the dehydrogenase domain (NP.d5) interacts with LSD2”.

B3: NP.d6: NPAC with deletion of the linker region (residues 152-252) (protein)
chain: MAAVSLRLGDLVWGKLGRYPPWPGKIVNPPKDLKKPRGKKCFFVKFFGTEDHAWIKVEQLKPYHAHKEEMIKINKGKRFQQAVDAVEEFLRRAKGKDQTSSHNSSDDKNRRNSSEERSRPNSGDEKRKLSLSEGKVKKNMGEGKKRVSSGSAADSTAVNGSITPTDKKIGFLGLGLMGSGIVSNLLKMGHTVTVWNRTAEKCDLFIQEGARLGRTPAEVVSTCDITFACVSDPKAAKDLVLGPSGVLQGIRPGKCYVDMSTVDADTVTELAQVIVSRGGRFLEAPVSGNQQLSNDGMLVILAAGDRGLYEDCSSCFQAMGKTSFFLGEVGNAAKMMLIVNMVQGSFMATIAEGLTLAHVTGQSQQTLLDILNQGQLASIFLDQKCQNILQGNFKPDFYLKYIQKDLRLAIALGDAVNHPTPMAAAANEVYKRAKALDQSDNDMSAVYRAYIH
modifications: left off: a dimerising Fc or GST; small tags and cut ends
For B3, the “Cofactor activity: stimulation” value in the experiment with His-LSD2 [1] is on record as “abolishes cofactor activity”. Besides, the “LSD2 binding (GST-pulldown)” value in the experiment with His-LSD2 [2] is on record as “abolishes NPAC-LSD2 interaction”.

B4: NP.d2: GST-tagged NPAC truncation, residues 1-252 (protein)
chain: MAAVSLRLGDLVWGKLGRYPPWPGKIVNPPKDLKKPRGKKCFFVKFFGTEDHAWIKVEQLKPYHAHKEEMIKINKGKRFQQAVDAVEEFLRRAKGKDQTSSHNSSDDKNRRNSSEERSRPNSGDEKRKLSLSEGKVKKNMGEGKKRVSSGSSERGSKSPLKRAQEQSPRKRGRPPKDEKDLTIPESSTVKGMMAGPMAAFKWQPTASEPVKDADPHFHHFLLSQTEKPAVCYQAITKKLKICEEETGSTSIQ
modifications: left off: a dimerising Fc or GST
For the molecule B4, the “Cofactor activity: stimulation” value with His-LSD2 [1] was “significantly enhance LSD2 demethylase activity”. Further, the “LSD2 binding (GST-pulldown)” value with His-LSD2 [2] is on record as “capable of directly interacting with LSD2”.

B5: NP.d3: GST-tagged NPAC truncation, residues 152-252 (protein)
chain: SERGSKSPLKRAQEQSPRKRGRPPKDEKDLTIPESSTVKGMMAGPMAAFKWQPTASEPVKDADPHFHHFLLSQTEKPAVCYQAITKKLKICEEETGSTSIQ
modifications: left off: a dimerising Fc or GST
On to B5, for which the “Cofactor activity: stimulation” value with His-LSD2 [1] is listed as “significantly enhance LSD2 demethylase activity”. Besides, the “LSD2 binding (GST-pulldown)” value with His-LSD2 [2] was “capable of directly interacting with LSD2”.

B6: NP.d4: GST-tagged NPAC truncation, residues 152-553 (protein)
chain: SERGSKSPLKRAQEQSPRKRGRPPKDEKDLTIPESSTVKGMMAGPMAAFKWQPTASEPVKDADPHFHHFLLSQTEKPAVCYQAITKKLKICEEETGSTSIQAADSTAVNGSITPTDKKIGFLGLGLMGSGIVSNLLKMGHTVTVWNRTAEKCDLFIQEGARLGRTPAEVVSTCDITFACVSDPKAAKDLVLGPSGVLQGIRPGKCYVDMSTVDADTVTELAQVIVSRGGRFLEAPVSGNQQLSNDGMLVILAAGDRGLYEDCSSCFQAMGKTSFFLGEVGNAAKMMLIVNMVQGSFMATIAEGLTLAHVTGQSQQTLLDILNQGQLASIFLDQKCQNILQGNFKPDFYLKYIQKDLRLAIALGDAVNHPTPMAAAANEVYKRAKALDQSDNDMSAVYRAYIH
modifications: left off: a dimerising Fc or GST
Turning to B6, the “Cofactor activity: stimulation” value with His-LSD2 [1] is reported as “significantly enhance LSD2 demethylase activity”. Further, the “LSD2 binding (GST-pulldown)” value with His-LSD2 [2] was “capable of directly interacting with LSD2”.
